# Measurements as given in patent publication US20260103689.
# Assays:
# [1] = tested on: SB100X Sleeping Beauty transposase (synthetic construct); experiment: cell_activity; conditions: HepG2 colony-forming transposition; integrates at TA
# [2] = tested on: SB100X Q124C transposase Q124C (synthetic construct); experiment: cell_activity; conditions: HepG2 colony-forming transposition; hyperactive at 500 and 2500 ng plasmid
substance,measurement,setting,value
"SB transposon pT2/Puro (puro-tagged, terminal inverted repeats)","transposition activity (colony formation, fold vs SB100X) (fold (reference))",[1],1
same,"transposition activity (colony formation, fold vs SB100X) (fold vs SB100X)",[2],2
